The target of assay [1] is T1, monomeric CD19 extracellular domain (UniProt P15391 20-291, limits assumed).
T1 construct: extracellular domain; also called monomeric CD19 protein
T1 sequence (looked up): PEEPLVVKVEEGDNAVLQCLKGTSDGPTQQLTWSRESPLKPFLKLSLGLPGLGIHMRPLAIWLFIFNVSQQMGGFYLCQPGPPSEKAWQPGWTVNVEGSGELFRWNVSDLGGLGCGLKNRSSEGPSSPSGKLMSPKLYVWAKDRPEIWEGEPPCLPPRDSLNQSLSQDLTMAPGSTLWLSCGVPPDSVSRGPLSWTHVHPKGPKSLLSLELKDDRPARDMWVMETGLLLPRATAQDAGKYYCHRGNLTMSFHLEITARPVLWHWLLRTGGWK
The assay can be described thus: SPR as printed, ForteBio instrument (per Estep et al. 2013); monomeric CD19 extracellular domain; monomeric CD19 protein. The method, then:
(§1) As noted above, the constructs produced contained an anti-CD19 scFv having the amino acid sequence set forth in SEQ ID NO: 9 or 18. The binding affinity of the two CD19 binding domains to CD19 were measured by SPR using a monomeric CD19 extracellular domain and a dimeric CD19 extracellular domain fused with human IgG1 Fc. Binding kinetic parameters were measured using an instrument (available under the tradename ForteBio™ from Pall Corporation®) generally as previously described (see, Estep et al. (2013) MAbs, 5 (2): 270-78).

The target in assay [2] is T2, dimeric CD19 extracellular domain fused with human IgG1 Fc (human, UniProt P15391 20-291, limits assumed).
T2 construct: extracellular domain; also called dimeric CD19 protein; not shown: human IgG1 Fc
T2 sequence (looked up): T1 sequence (looked up)
The assay is described as follows: SPR as printed, ForteBio instrument (per Estep et al. 2013); dimeric CD19 extracellular domain-human IgG1 Fc; dimeric CD19 protein (IgG1 Fc fusion). The method, then:
as §1
In general terms: Biolayer interferometry detects binding as a change in optical thickness at a sensor tip.

B1: CD19 binding domain having the sequence of SEQ ID NO: 18 (scFv)
scFv: QVQLQESGPGLVKPSQTLSLTCTVSGGSISTSGMGVGWIRQHPGKGLEWIGHIWWDDDKRYNPALKSRVTISVDTSKNQFSLKLSSVTAADTAVYYCARMELWSYYFDYWGQGTLVTVSSGGGGSGGGGSGGGGSEIVLTQSPATLSLSPGERATLSCSASSSVSYMHWYQQKPGQAPRLLIYDTSKLASGIPARFSGSGSGTDFTLTISSLEPEDFAVYYCFQGSVYPFTFGQGTKLEIKR
notes: also called SG mAb scFv
Broadly, the Kd is the free concentration of one partner at which half of the binding sites on the other are occupied at equilibrium, for simple one-to-one binding. Low values mean a tighter complex, high ones a looser complex. For the molecule B1, the figures for the equilibrium dissociation constant (Kd) in assay [1] and in assay [2] were 11 nM and 15 nM, respectively.

B2: CD19 binding domain having the sequence of SEQ ID NO: 9 (scFv)
scFv: QVQLVQSGAEVKKPGASVKVSCKASGYTFTDYIMHWVRQAPGQGLEWMGYINPYNDGSKYTEKFQGRVTMTSDTSISTAYMELSRLRSDDTAVYYCARGTYYYGPQLFDYWGQGTTVTVSSGGGGSGGGGSGGGGSDIVMTQTPLSLSVTPGQPASISCKSSQSLETSTGTTYLNWYLQKPGQSPQLLIYRVSKRFSGVPDRFSGSGSGTDFTLKISRVEAEDVGVYYCLQLLEDPYTFGQGTKLEIK
notes: also called Roche mAb scFv
For the molecule B2, the Kd in assay [1] is 7 nM; in assay [2], 5 nM.
